One molecule from US20180193437A1 (UNIVERSITY OF FLORIDA RESEARCH FOUNDATION, published 2018) can be followed below.

In this assay the target is T1, rabbit IFNγ (rabbit, UniProt P30123 24-167).
T1 construct: also called rabbit IFNgamma; interferon gamma
T1 sequence (looked up): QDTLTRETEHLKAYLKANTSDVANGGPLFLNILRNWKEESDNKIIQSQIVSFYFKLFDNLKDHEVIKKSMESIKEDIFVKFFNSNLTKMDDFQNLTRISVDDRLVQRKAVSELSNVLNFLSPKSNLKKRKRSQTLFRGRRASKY
Kind of assay: binding data, method not described.

B1: M-T7 point mutation E209I (other)
chain: VRLTSYDLNTFVTWQDDGYTYNVSIKPYTTATWINVCEWASSSCNVSLALQYDLDVVSWARLTRVGKYTEYSLEPTCAVARFSPPEVQLVRTGTSVEVLVRHPVVYLRGQEVSVYGHSFCDYDFGYKTIFLFSKNKRAEYVVPGRYCDNVECRFSIDSQESVCATAVLTYDGSYRSEAGVEVCVPELAKRIVSPYIVKKSSDLEYVKRAIHNEYRLDTSSEGRRLEELYLTVASMFERLVEDVFE
notes: The mutant was made by mutagenic PCR of the His-tagged M-T7 construct; also called M-T7 (E209I); not shown: C-terminal His tag (His6x)
As to B1, the binding result is recorded as “no binding”.
